Each block holds one binder with its values, some of them ahead of it.
Tests used:
mouse CSPG5-GST = mouse CSPG5-GST (mouse); assay: SPR Biacore T-100, antibody captured, mouse CSPG5-GST analyte
Method: The affinity of the anti-CSPG5 antibodies, the CSPG5202 IgG4PE(R409K), and the AVM IgG4PE(R409K) CSPG5202 dscFv produced in Example 2 for human CSPG5 and mouse CSPG5 was measured using Biacore T-100 (GE Healthcare).
Each of the antibodies was immobilized on a […] sensor chip using a Human antibody Capture kit, and the binding ability was evaluated using human CSPG5-GST and mouse CSPG5-GST produced in Example 4 as analytes. The obtained sensorgram was analyzed with BIA evaluation software, and the dissociation constant (KD value) was calculated.

human CSPG5 [1] = target: T1, human CSPG5 (human, UniProt O95196 31-566); assay: FACS, 10 µg/mL antibody, human CSPG5/Expi293F vs Expi293F
T1 construct: Full-length gene expressed on cell membrane (Expi293F, L929); also called human CSPG5/Expi293F cells; human CSPG5/L929#09
T1 sequence: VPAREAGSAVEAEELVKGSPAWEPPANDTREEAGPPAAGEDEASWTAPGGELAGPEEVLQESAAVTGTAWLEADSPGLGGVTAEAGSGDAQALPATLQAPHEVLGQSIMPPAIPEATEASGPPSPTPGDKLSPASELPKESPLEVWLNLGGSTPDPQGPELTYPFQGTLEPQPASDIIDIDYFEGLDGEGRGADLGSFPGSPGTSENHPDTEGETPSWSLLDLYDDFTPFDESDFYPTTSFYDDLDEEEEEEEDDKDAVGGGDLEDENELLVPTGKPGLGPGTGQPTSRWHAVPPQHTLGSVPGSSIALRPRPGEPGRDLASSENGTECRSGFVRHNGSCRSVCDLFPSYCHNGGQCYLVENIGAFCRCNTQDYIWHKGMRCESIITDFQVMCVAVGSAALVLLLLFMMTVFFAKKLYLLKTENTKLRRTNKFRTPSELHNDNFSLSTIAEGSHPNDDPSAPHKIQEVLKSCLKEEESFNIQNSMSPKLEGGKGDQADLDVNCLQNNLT
Method: (§1) Expi293F cells, human CSPG5/Expi293F cells, mouse CSPG5/Expi293F cells, and monkey CSPG5/Expi293F cells were separately suspended in Staining Buffer (SB) of PBS comprising 0.1% NaN₃ and 1% FBS and dispensed in a round-bottom 96-well plate (manufactured by Becton, Dickinson and Company). After centrifugation (2000 rpm, 4° C., 2 minutes), the supernatant was removed, and to the resulting pellet, 10 μg/mL of each antibody obtained in Example 2 was added to suspend the pellet, and the resulting suspension was left to stand for 30 minutes at ice temperature. After further centrifugation (2000 rpm, 4° C., 2 minutes), the supernatant was removed, and the resulting pellet was washed with SB, and thereafter, 1 μg/mL of an RPE fluorescently labeled goat anti-human antibody (manufactured by Southern Biotech, Inc.) was added thereto, and the resultant was incubated for 30 minutes at ice temperature. After washing with SB, the cells were suspended in SB, and the fluorescence intensity of each cell was measured using a flow cytometer FACS CANTO II (manufactured by Becton, Dickinson and Company). Note that as a negative control, 10 μg/mL of the anti-AVM antibody was used.
(§2) The detection results were analyzed, and a mean fluorescence intensity (MFI) was calculated using a geometric mean. Further, with respect to the MFI when the concentration of each antibody was 10 μg/mL, the ratio of the MFI (mean fluorescence intensity ratio) between the human CSPG5/Expi293F cells and the Expi293F cells (parent cell line) was calculated. Also for the monkey CSPG5/Expi293F cells and the mouse CSPG5/Expi293F cells, the mean fluorescence intensity ratio relative to the Expi293F cells (parent cell line) was calculated by the same procedure, and the results are shown in Table 3.

mouse CSPG5 [2] = target: T2, mouse CSPG5 (mouse, UniProt Q71M36 31-566); assay: FACS, 10 µg/mL antibody, mouse CSPG5/Expi293F vs Expi293F
T2 construct: Full-length gene expressed on Expi293F cells; also called mouse CSPG5/Expi293F cells
T2 sequence: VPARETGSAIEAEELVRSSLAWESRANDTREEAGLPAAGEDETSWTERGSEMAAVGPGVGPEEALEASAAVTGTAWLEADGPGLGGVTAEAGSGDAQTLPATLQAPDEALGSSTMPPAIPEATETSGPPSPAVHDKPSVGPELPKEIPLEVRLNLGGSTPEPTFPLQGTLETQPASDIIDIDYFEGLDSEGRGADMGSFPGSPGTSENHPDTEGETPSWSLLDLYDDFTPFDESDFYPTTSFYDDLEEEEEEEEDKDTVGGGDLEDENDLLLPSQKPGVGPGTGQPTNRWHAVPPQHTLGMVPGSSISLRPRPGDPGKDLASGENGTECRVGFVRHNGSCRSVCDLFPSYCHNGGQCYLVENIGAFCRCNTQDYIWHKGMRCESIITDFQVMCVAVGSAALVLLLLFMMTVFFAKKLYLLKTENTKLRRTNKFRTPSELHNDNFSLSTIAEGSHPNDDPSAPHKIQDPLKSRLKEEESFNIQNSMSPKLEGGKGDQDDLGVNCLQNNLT
Method: as §1, §2

monkey CSPG5 [3] = target: T3, monkey CSPG5 (monkey (rhesus monkey), UniProt O95196 31-566 (human entry)); assay: FACS, 10 µg/mL antibody, monkey CSPG5/Expi293F vs Expi293F
T3 construct: Full-length gene expressed on Expi293F cells; also called monkey CSPG5/Expi293F cells; rhesus monkey CSPG5
T3 chain: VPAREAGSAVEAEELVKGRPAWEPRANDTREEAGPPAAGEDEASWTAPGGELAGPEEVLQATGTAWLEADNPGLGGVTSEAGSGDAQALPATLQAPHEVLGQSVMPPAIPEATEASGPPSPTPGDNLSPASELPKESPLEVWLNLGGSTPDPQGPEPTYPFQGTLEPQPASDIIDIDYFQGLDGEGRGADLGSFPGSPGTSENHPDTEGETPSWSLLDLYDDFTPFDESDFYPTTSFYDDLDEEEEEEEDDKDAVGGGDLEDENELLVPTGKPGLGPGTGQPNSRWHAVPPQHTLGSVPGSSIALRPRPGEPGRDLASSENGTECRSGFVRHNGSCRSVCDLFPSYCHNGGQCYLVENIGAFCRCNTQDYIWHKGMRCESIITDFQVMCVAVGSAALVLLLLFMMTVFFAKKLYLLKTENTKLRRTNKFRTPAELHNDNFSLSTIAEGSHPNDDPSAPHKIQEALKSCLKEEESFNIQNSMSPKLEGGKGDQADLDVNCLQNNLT
Method: as §1, §2

human CSPG5 [4] = target: T1, human CSPG5; assay: FACS on CSPG5/Expi293F cells
Method: as §1

monkey CSPG5 [5] = target: T3, monkey CSPG5; assay: FACS on CSPG5/Expi293F cells
Method: as §1

mouse CSPG5 [6] = target: T2, mouse CSPG5; assay: FACS on CSPG5/Expi293F cells
Method: as §1

Kd (mouse CSPG5-GST): ≤ 10 nM
Mean fluorescence intensity ratio (human CSPG5 [1]): 5.46 ratio to parent cell line
Mean fluorescence intensity ratio (mouse CSPG5 [2]): 5.81 ratio to parent cell line
Mean fluorescence intensity ratio (monkey CSPG5 [3]): 3.36 ratio to parent cell line
B1: CSPG5168 scFv-hG4PE(R409K) (Fc fusion)
VH: EVQLVETGGALVQPGGSLRLSCAGSGFIFSKYEMTWVRQAPGKGLEWVSTIGSLGLKTFYTDSVKGRFTTSRDNSRDTLFLQMDNLRVEDTAIYFCVKGGIRRADYWGKGTLVTVSS
VL: EIVMTQSPATLSLSPGERATLSCRASQSVSSYLAWYQQKPGQAPRLLIYDASNRATGIPARFSGSGSGTDFTLTISSLEPEDFAVYYCQQRSNWPLTFGGGTKVEIK
notes: also called anti-CSPG5 scFv-Fc antibody

Kd (mouse CSPG5-GST): ≤ 10 nM
Mean fluorescence intensity ratio (human CSPG5 [1]): 3.24 ratio to parent cell line
Mean fluorescence intensity ratio (mouse CSPG5 [2]): 3.44 ratio to parent cell line
Mean fluorescence intensity ratio (monkey CSPG5 [3]): 3.56 ratio to parent cell line
B2: CSPG5115 scFv-hG4PE(R409K) (Fc fusion)
VH: EVQLVQSGAEVKKPGASLKVSCKASGYSFTDYIIHWVRQAPGQSLEWMGWINGGSGVPKYSDKFQGRVTITRDTSANTAYMEIRSLGSEDTAVYYCARGGVCSGDKCYYYGMDVWGQGTTVTVSS
VL: QSVLTQPPSVSVSPGQTASITCSGDKLGDKYSWWYQQKPGQSPLLVIHQDNKRPSGIPERFSGSNSGNTATLTIVGTQAMDEADYYCQAWDRGVVFGGGTKLTVL
notes: as for B1

binding result (human CSPG5 [4]): binds
binding result (monkey CSPG5 [5]): binds
binding result (mouse CSPG5 [6]): binds
Kd (mouse CSPG5-GST): ≤ 10 nM
B3: AVM IgG4PE(R409K) CSPG5202 dscFv (bispecific antibody)
heavy: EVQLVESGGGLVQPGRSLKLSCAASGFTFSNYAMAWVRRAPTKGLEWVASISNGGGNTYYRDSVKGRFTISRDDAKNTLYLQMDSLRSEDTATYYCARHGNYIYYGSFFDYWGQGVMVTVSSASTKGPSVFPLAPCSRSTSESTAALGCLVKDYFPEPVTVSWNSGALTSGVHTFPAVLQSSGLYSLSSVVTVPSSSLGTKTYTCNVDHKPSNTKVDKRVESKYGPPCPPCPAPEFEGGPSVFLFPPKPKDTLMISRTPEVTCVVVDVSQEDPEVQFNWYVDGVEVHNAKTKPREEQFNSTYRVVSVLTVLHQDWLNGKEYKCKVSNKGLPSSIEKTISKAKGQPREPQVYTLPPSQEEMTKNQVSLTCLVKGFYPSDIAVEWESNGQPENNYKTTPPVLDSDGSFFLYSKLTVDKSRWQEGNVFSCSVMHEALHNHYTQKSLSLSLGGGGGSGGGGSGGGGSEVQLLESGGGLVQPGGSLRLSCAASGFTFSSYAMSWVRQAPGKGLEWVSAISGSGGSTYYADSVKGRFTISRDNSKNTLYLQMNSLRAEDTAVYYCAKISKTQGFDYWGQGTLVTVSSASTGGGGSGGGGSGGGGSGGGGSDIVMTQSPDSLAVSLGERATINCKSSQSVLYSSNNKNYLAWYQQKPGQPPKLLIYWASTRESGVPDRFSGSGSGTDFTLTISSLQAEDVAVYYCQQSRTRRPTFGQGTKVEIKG
light: QFVLSQPNSVSTNLGSTVKLSCKRSTGNIGSNYVSWYQQHEGRSPTTMIYRDDKRPDGVPDRFSGSIDRSSDSALLTINNVQTEDEADYFCQSYSSGINIFGGGTKLTVLGQPKAAPSVTLFPPSSEELQANKATLVCLISDFYPGAVTVAWKADSSPVKAGVETTTPSKQSNNKYAASSYLSLTPEQWKSHRSYSCQVTHEGSTVEKTVAPTECS
notes: also called anti-AVM-IgG4-CSPG5 dscFv bispecific antibody

Kd (mouse CSPG5-GST): ≤ 10 nM
Mean fluorescence intensity ratio (human CSPG5 [1]): 18.5 ratio to parent cell line
Mean fluorescence intensity ratio (mouse CSPG5 [2]): 20.4 ratio to parent cell line
Mean fluorescence intensity ratio (monkey CSPG5 [3]): 8.01 ratio to parent cell line
B4: CSPG5120 scFv-hG4PE(R409K) (Fc fusion)
VH: EVQLVQSGGGLVQPGGSLRLSCAASGFTFSNYWMTWVRQAPGEGPEWVANINQDGSQKYYVDSVKGRFTISRDNAKNSLNLQMNNLRAEDTALYYCAKSNAMDVWGQGTLVTVSS
VL: DIVMTQSPLSLPVTPGEPASISCRSSESLLHSNGYNYLNWYLQKPGQSPQLLIYLGSHRASGVPDRLSGSGSDTDFTLKISRVEAEDVGIYYCMQGRQTPITFGGGTKLEIK
notes: as for B1
